Experimental data reported in the DeepSol protein solubility set.

Assay: soluble on expression in E. coli; label from the status in PepcDB or PDB records

| Sequence | soluble on expression in E. coli |
| --- | --- |
| MSDVAVAETPAVKTPTKASKATKAKATKIPKVKVVAAHPPFINMITEAVSNLKDRKGSSRVAIFKFITAKYTLGDQVNKTNAHLRSALKKGVVSKVLVQTNGIGANGRFRLAVAEKPPAVKKAATGEQKVMKTVAKKAVSGDKAKKTVAKKTGDKVKKVKSPKRIAKPAVKKVTKKAAAPTKSAANETAPKKAAATEAAPKKAAVTKAATKKTPARKAVGTAPKA | soluble |
| MRPSAPAISRQTLLDEPRPGSLTIGYEPSEEAQPTENPPRFSWLPDIDDGARYVLRISTDPGFTDKKTLVFEDLAWNFFTPDEALPDGHYHWCYALWDQKSATAHSNWSTVRSFEISEALPKTPLPGRSARHAAAQTSHPRLWLNSEQLSAFADAVAKDPNHCGWAEFYEKSVEPWLERPVMPEPQPYPNNTRVATLWRQMYIDCQEVIYAIRHLAIAGRVLGRDDLLDASRKWLLAVAAWDTKGATSRAYNDEAGFRVVVALAWGYDWLYDHLSEDERRTVRSVLLERTREVADHVIAHARIHVFPYDSHAVRSLSAVLTPACIALQGESDEAGEWLDYTVEFLATLYSPWAGTDGGWAEGPHYWMTGMAYLIEAANLIRSYIGYDLYQRPFFQNTGRFPLYTKAPGTRRANFGDDSTLGDLPGLKLGYNVRQFAGVTGNGHYQWYFDHIKADATGTEMAFYNYGWWDLNFDDLVYRHDYPQVEAVSPADLPALAVFDDIGWATIQKDMEDPDRHLQFVFKSSPYGSLSHSHGDQNAFVLYAHGEDLAIQSGYYVAFNSQMHLNWRRQTRSKNAVLIGGKGQYAEKDKALARRAAGRIVSVEEQPGHVRIVGDATAAYQVANPLVQKVLRETHFVNDSYFVIVDEVECSEPQELQWLCHTLGAPQTGRSSFRYNGRKAGFYGQFVYSSGGTPQISAVEGFPDIDPKEFEGLDIHHHVCATVPAATRHRLVTLLVPYSLKEPKRIFSFIDDQGFSTDIYFSDVDDERFKLSLPKQF | soluble |
| MSHVNQAVSCIFCYFQEMSFVCGISGELTEDPVVSQVSGHIFDRRLIVKFIAENGTDPISHGELSEDQLVSLKSGGTGSAPRNVSGTSIPSLLKMLQDEWDTVMLNSFSLRQQLQIARQELSHSLYQHDAACRVISRLSKELTAAREALSTLKPHTSAKVDDDVSIDESEDQQGLSEAILAKLEEKSKSLTAERKQRGKNLPEGLAKTEELAELKQTASHTGIHSTGTPGITALDIKGNLSLTGGIDKTVVLYDYEKEQVMQTFKGHNKKINAVVLHPDNITAISASADSHIRVWSATDSSSKAIIDVHQAPVTDISLNASGDYILSASDDSYWAFSDIRSGKSLCKVSVEPGSQIAVHSIEFHPDGLIFGTGAADAVVKIWDLKNQTVAAAFPGHTAAVRSIAFSENGYYLATGSEDGEVKLWDLRKLKNLKTFANEEKQPINSLSFDMTGTFLGIGGQKVQVLHVKSWSEVVSLSDHSGPVTGVRFGENARSLVTCSLDKSLRVFSF | not soluble |
| MGSDKIHHHHHHMKFVQKIYYFLFKLVGFLPRRKELVMFESFSGKQYSCNPRAIFEYMEEHNPEYELLWSVNPKYVDLFEAHGVPYVKRFSVNWLFKMGLAKFWISNSRLPLELPKPKKTIYVQTWHGTPLKKLGVDIDEVHMPGQTTEQYKADFVKEAQKWDYLISPNAYSSTIFRRAFGFTGEMIESGYPRNDILFSADKELKIANIKMALNIPEDKKVILYAPTWRDNDFYEIGKYKFDLKIDIAKMQEKFGDEVVLLVRMHYLVAEHFDFTQYGDFVRDASKHEDIRDLYLVSDLLITDYSSVFFDYANLKRPMLFYTYDLAEYRDTLRGFYFDFEQNAPGPLVEMNDALMAEIEIMLENPPQIAESFLEQFCTWEDGHAAEKTVKKVFAEK | not soluble |
